Consider eight molecules from paper doi:10.1101/2022.05.05.490853 (bioRxiv, 2022).

B1: recombinant monoclonal antibody 1D11 (re-cloned, second most abundant VH and VL) (antibody, V domains shown)
VH: QSLVESGGGLVQPEGSLTLTCKASGFSFSSGYDMCWVRQAPGKGLEYIACIDAGDDITHYASWVKGRFTVSKTSSTTVTLQLNSLTVADTATYFCGRFWDLWGPGTLVTVSS
VL: SSVLTQTPSPVSAAVGGTVTINCQSSQSVYDSTWLGWYQQKPGQPPKLLIYKASNLASGVPSRFKGSGSGTHFTLTISDLECDDAATYYCVGGYSGSVDNWAFGGGTEVVVK
B2: recombinant monoclonal antibody 15E2 (antibody, V domains shown)
VH: QSLEESGGGLFKPTDTLTLTCTVSGIDLSSYAMIWVRQAPGKGLEWIGYIWSSGRIWYASWAKGRFTISRTSTTVDLKLASPTTEDTATYFCARLWDIWGPGTLVTVSS
VL: AQVLTQTPSSVSAAVGGTVTISCQASQSLYNGVNLAWYQQKPGQPPKLLIFGASNLESGVSSRFRGSGSGTQFTLTISGVQCDDAATYYCLGEFSCSSADCLAFGGGTEVVVK
B3: recombinant monoclonal antibody 17A8 (antibody, V domains shown)
VH: QSVEESGGRLVTPGTPLTLTCTVSGFPLSSYSMAWVRQAPGKGLEYIGFINTDGSAYYASWAKGRITISKTSTTVELKITSPTTEDTATYFCGTGNIWGPGTLVTVSS
VL: AQVLTQTPSSVSAAVGGTVTINCQASQSVSNNNVLAWFQQKPGQPPKRLIYSALTLDSGVPSRFKGSGSGTHFTLTISGVQCDDAATYYCAGGYDCSSNDCIAFGGGTEVVVK
B4: recombinant monoclonal antibody 28D3 (antibody, V domains shown)
VH: B3 VH with P27S, A34G, F49M, N51I, T52S, D53N, G54N, A56T
VL: B3 VL with S9A, V29T, V34A, A103T
B5: antibody in the supernatant of B cell line 1D11 (antibody, V domains shown)
VH: B1 VH
VL: B1 VL
B6: antibody in the supernatant of B cell line 15E2 (antibody, V domains shown)
VH: B2 VH
VL: B2 VL
B7: antibody in the supernatant of B cell line 28D3 (antibody, V domains shown)
VH: B3 VH with P27S, A34G, F49M, N51I, T52S, D53N, G54N, A56T
VL: B3 VL with S9A, V29T, V34A, A103T
B8: antibody in the supernatant of B cell line 17A8 (antibody, V domains shown)
VH: B3 VH
VL: B3 VL

Residue numbers refer to the chain shown, from its start.

One test concerns the target T1, recombinant VlsE protein (vlsE cassette region of B. burgdorferi B31-5A3) (Borreliella burgdorferi B31, clone …, UniProt O06878). The test can be described thus: ELISA. (In general: In an ELISA, binding on a coated surface is turned into a signal by an enzyme label.)
For the molecule B1, the binding result is given as “binds”. Still for that read-out and setting: under B2 stands “binds”; under B3, “binds”; under B4, “binds”.

A further test deals with T1, recombinant VlsE protein (vlsE cassette …). The test can be described thus: ELISA. The source holds these as a separate data set.
For B5, the binding result is listed as “binds”. On the same count and under the same terms, under B6 stands “binds”; under B7, “binds”. The same measure, in the same setting: under B8 stands “binds”.
